Results from article PMC2814086 (Molecular Microbiology, 2009).

Biological target: the molecule itself
Assay: mass spectrometry

B1: MinE-His (wild-type MinE with a His tag, plasmid pSOT13 [PT7::minE-his]) (natural protein, E. coli, UniProt P0A734 1-88, looked up)
chain: MALLDFFLSRKKNTANIAKERLQIIVAERRRSDAEPHYLPQLRKDILEVICKYVQIDPEMVTVQLEQKDGDISILELNVTLPEAEELK
- stoichiometry N: 2
